Substitutions are numbered along the chain they refer to.

One assay concerns the target T1, mAREG-EGFd-mFc (mouse, UniProt P31955 135-177).
T1 construct: also called EGF domain of mAREG (aa135-177) fused with mFc tag; not shown: mFc tag (Fc fragment of mouse IgG2a as for hAREG-EGFd-mFc)
T1 chain: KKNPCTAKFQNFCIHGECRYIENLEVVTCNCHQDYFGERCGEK
Briefly: SPR (Biacore T200). Background: SPR reads the build-up and loss of mass on a sensor chip optically.

The next assay addresses T2, hAREG-H164N variant (human, UniProt P15514 142-184).
T2 construct: also called H164N variant of hAREG-EGFd
T2 chain: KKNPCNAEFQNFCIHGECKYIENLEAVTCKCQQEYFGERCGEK
Briefly: SPR (Biacore T200).

A further assay addresses T3, hAREG-E149K variant (human, UniProt P15514 142-184).
T3 construct: also called E149K variant of hAREG-EGFd
T3 chain: T2 chain with E8K, N23H
Briefly: SPR (Biacore T200).

The next assay deals with T4, mAREG-N164H variant (mouse, UniProt P31955 135-177, limits assumed).
T4 construct: Position is in hAREG numbering
T4 chain: T1 chain with N23H
Briefly: SPR (Biacore T200).

In a further assay the target is T5, hAREG-EGFd-mFc (human; mouse, UniProt P15514 142-184).
T5 construct: Expressed in 293F cells; not shown: Fc fragment of mouse IgG2a
T5 chain: T2 chain with N23H
In words: SPR, Biacore T200; mAb captured on anti-human Fc chip, antigen in solution. The protocol:
(§1) To evaluate affinities of different mouse hybridoma mAbs or their humanized and engineered variants, SPR measurement was performed using Biacore T200 instrument. mAbs were captured on anti-human Fc CM5 biosensor chip surface, hAREG-EGFd-mFc, mAREG-EGFd-mFc or hAREG-98aa (purchased from PeproTech, cat #100-55B) in serial dilutions were injected over antibody-bound surface, followed by a dissociation phase. Association rates (Ka) and dissociation rates (Kd) were calculated using the one-to-one Langmuir binding model (BIA Evaluation Software, GE Life Sciences). The equilibrium dissociation constant (KD) was calculated as the ratio kd/ka.

Another assay concerns the target T6, hAREG-98aa (human, UniProt P15514 101-198).
T6 construct: Bought protein
T6 sequence (looked up): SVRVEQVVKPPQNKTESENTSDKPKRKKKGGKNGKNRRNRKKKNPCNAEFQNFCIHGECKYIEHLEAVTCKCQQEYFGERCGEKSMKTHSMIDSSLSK
The assay is described as above. Here is the method: as §1

B1: hu9C12v6 (antibody, V domains shown)
VH: EVQLVESGGGLVKPGGSLRLSCAASGFTFSSYPMSWVRQAPEKGLEWVSTISTGGTYTYYPDSVKGRFTISRDNAKNSLYLQMNSLRAEDTAVYYCARQGPIYYGNYYYGMDVWGQGTTVTVSS
VL: DVVMTQSPLSLPVTLGDPASISCRSSQSLVNQEGETYLHWYQQRPGQSPKLLIYKVSNRFDGVPDRFSGSGSGTDFTLKISRVEAEDVGVYYCSQSTHVPYTFGQGTKLEIK
notes: Humanized 9C12 variant
With B1, the binding result with mAREG-EGFd-mFc was “no binding”; with hAREG-H164N variant, “no binding”; with hAREG-E149K variant, “binds”; with mAREG-N164H variant it was “binds”. In addition, the Kd (commonly a measure of binding affinity in units of concentration) with hAREG-EGFd-mFc came to 0.398 nM; in the assay with hAREG-98aa it was 0.188 nM. For the same molecule, the values for the koff with hAREG-EGFd-mFc and in the assay with hAREG-98aa were 0.000389 s⁻¹ and 0.00457 s⁻¹, respectively. Also, the kon (in general, the second-order rate constant of association) is 978000 M⁻¹ s⁻¹ in the assay with hAREG-EGFd-mFc and 2.43e+07 M⁻¹ s⁻¹ in the assay with hAREG-98aa.

For the origin of these results see patent US20230041071A1 (NATIONAL INSTITUTE OF BIOLOGICAL SCIENCES BEIJING, published 2023).
